In the supplement of paper PMC7877785:
± gives the uncertainty stated by the source.

Assay: self-splicing fitness, log relative to wild type (ln ratio); higher = more splicing; Tetrahymena group I intron in knt gene, E. coli kanamycin selection, DiMSum; sequences stand for … in CUCUCU…GGAGGGAAAAGUUAUCAGGCAUGCACCUGGUAGCUAGUCUUUAAACCAAUAGAUUGCAUCGGUUUAAAAGGCAAGACCGUCAAAUUGCGGGAAAGGGGUCAACAGCCGUUCAGUACCAAGUCUCAGGGGAAACUUUGAGAUGGCCUUGCAAAGGGUAUGGUAAUAAGCUGACGGACAUGGUCCUAACCACGCAGCCAAGUCCUAAGUCAACAGAUCUUCUGUUGAUAUGGAUGCAGUUCACAGACUAAAUGUCGGUCGGGGAAGAUGUAUUCUUCUCAUAAGAUAUAGUCGGACCUCUCCUUAAUGGGAGCUAGCGGAUGAAGUGAUGCAACACUGGAGCCGCUGGGAACUAAUUUGUAUGCGAAAGUAUAUUGAUUAGUUUUGGAGUACUCGUGGUCG
In short: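 Library with all eight P1ex-region intron nucleotides randomised, intron inside the knt kanamycin-resistance gene on pET-22b(+), in E. coli BL21(DE3). Cells grew overnight at 37°C or 30°C on LB agar with or without 25 μg/mL kanamycin (plus 100 μg/mL carbenicillin, 50 μM IPTG, 0.2% rhamnose), in six replicate transformations. Pooled colonies were amplicon-sequenced on Illumina HiSeq 2500. DiMSum fitness is the error-weighted combination of wild-type-normalised replicate fold changes, kanamycin versus none.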

| Sequence | self-splicing fitness (ln) (30 °C) | self-splicing fitness (ln) (37 °C) |
| --- | --- | --- |
| UGCAAGCAAUAUUACGGACA | -0.633 ± 0.12 | -0.0695 ± 0.16 |
| UGCAAGCAAUAUUACGGACU | -0.763 ± 0.077 | 0.286 ± 0.093 |
| UGCAAGCAAUAUUACGGCUC | -1.8 ± 0.11 | -1.01 ± 0.15 |
| UGCAAGCAAUAUUACGGCUU |  | -1.72 ± 0.28 |
| UGCAAGCAAUAUUACGUACA | -0.594 ± 0.062 | 0.366 ± 0.092 |
| UGCAAGCAAUAUUACGUAUU | -3.36 ± 0.37 | -2.08 ± 0.21 |
| UGCAAGCAAUAUUACGUCCA | -0.254 ± 0.047 | 0.213 ± 0.07 |
| UGCAAGCAAUAUUACGUGCC | -0.791 ± 0.092 | -1.12 ± 0.12 |
| UGCAAGCAAUAUUACGUUGG | -2.87 ± 0.12 | -2.22 ± 0.14 |
| UGCAAGCAAUAUUACGUUUU | -4.29 ± 0.16 | -3.33 ± 0.15 |
| UGCCAGCAAUAUUACGAAAA | -2 ± 0.17 | -1.24 ± 0.14 |
| UGCCAGCAAUAUUACGAAAU | -2.86 ± 0.2 | -1.81 ± 0.17 |
| UGCCAGCAAUAUUACGACCU | -2.35 ± 0.19 | -1.34 ± 0.17 |
| UGCCAGCAAUAUUACGAGUA | -1.49 ± 0.1 | 0.112 ± 0.11 |
| UGCCAGCAAUAUUACGAUAU | -4.12 ± 0.28 | -1.74 ± 0.16 |
| UGCCAGCAAUAUUACGAUCA | -0.629 ± 0.099 | 0.465 ± 0.13 |
| UGCCAGCAAUAUUACGCCGA | -2.56 ± 0.37 | -1.07 ± 0.18 |
| UGCCAGCAAUAUUACGCGUA | -1.13 ± 0.075 | -0.301 ± 0.083 |
| UGCCAGCAAUAUUACGCUAA | -0.447 ± 0.084 | 0.0253 ± 0.095 |
| UGCCAGCAAUAUUACGCUAU | -0.882 ± 0.16 | -1.13 ± 0.16 |
| UGCCAGCAAUAUUACGGACA | -0.325 ± 0.074 | -0.394 ± 0.09 |
| UGCCAGCAAUAUUACGGAUA | -1.27 ± 0.091 | -0.573 ± 0.1 |
| UGCCAGCAAUAUUACGGAUU | -1.67 ± 0.068 | -0.242 ± 0.074 |
| UGCCAGCAAUAUUACGGCGG | -3.73 ± 0.18 | -1.48 ± 0.13 |
| UGCCAGCAAUAUUACGGGAA | -1.37 ± 0.092 | -0.333 ± 0.1 |
| UGCCAGCAAUAUUACGGGUU | -2.46 ± 0.13 | -2.34 ± 0.12 |
| UGCCAGCAAUAUUACGGUGA | -0.97 ± 0.075 | 0.0352 ± 0.092 |

| Sequence | self-splicing fitness (ln) (30 °C) | self-splicing fitness (ln) (37 °C) |
| --- | --- | --- |
| UGCCAGCAAUAUUACGGUGG | -3.29 ± 0.13 | -2.97 ± 0.21 |
| UGCCAGCAAUAUUACGUAAA | -1.24 ± 0.093 | -0.956 ± 0.12 |
| UGCCAGCAAUAUUACGUAGU | -3.91 ± 0.21 | -1.87 ± 0.13 |
| UGCCAGCAAUAUUACGUAUA | -1.92 ± 0.11 | -1.62 ± 0.12 |
| UGCCAGCAAUAUUACGUCAC |  | -2.01 ± 0.29 |
| UGCCAGCAAUAUUACGUCAG | -2.49 ± 0.11 | -1.53 ± 0.14 |
| UGCCAGCAAUAUUACGUCGC | -3.68 ± 0.44 | -2.95 ± 0.35 |
| UGCCAGCAAUAUUACGUCUC | -4.62 ± 0.29 | -2.11 ± 0.25 |
| UGCGAGCAAUAUUACGAACU | -1.88 ± 0.11 | 0.0543 ± 0.09 |
| UGCGAGCAAUAUUACGAAGU | -3.37 ± 0.3 | -0.334 ± 0.29 |
| UGCGAGCAAUAUUACGACCG | -1.72 ± 0.17 | 0.112 ± 0.21 |
| UGCGAGCAAUAUUACGAGUC | -3.05 ± 0.21 | -2.27 ± 0.2 |
| UGCGAGCAAUAUUACGAUAA | -3.41 ± 0.23 | -2.01 ± 0.18 |
| UGCGAGCAAUAUUACGCAAA | -3.58 ± 0.28 | -2.04 ± 0.17 |
| UGCGAGCAAUAUUACGCCGG | -3.39 ± 0.34 |  |
| UGCGAGCAAUAUUACGCCGU | -3.36 ± 0.23 | -2.54 ± 0.3 |
| UGCGAGCAAUAUUACGCCUG | -3.98 ± 0.22 | -0.862 ± 0.13 |
| UGCGAGCAAUAUUACGCGCG | -2.71 ± 0.2 | -2.72 ± 0.3 |
| UGCGAGCAAUAUUACGCGCU | -3.43 ± 0.36 |  |
| UGCGAGCAAUAUUACGCGUG | -4.3 ± 0.42 | -1.12 ± 0.25 |
| UGCGAGCAAUAUUACGGAAC |  | -2.25 ± 0.39 |
| UGCGAGCAAUAUUACGGACG | -1.24 ± 0.15 | -1.19 ± 0.17 |
| UGCGAGCAAUAUUACGGCUC | -2.91 ± 0.31 | -3.21 ± 0.41 |
| UGCGAGCAAUAUUACGGGCA | -2.84 ± 0.21 | -1.31 ± 0.18 |
| UGCGAGCAAUAUUACGGGCG | -1.59 ± 0.061 | -0.628 ± 0.086 |
| UGCGAGCAAUAUUACGGUCG | -2.27 ± 0.25 | -2.39 ± 0.27 |
| UGCGAGCAAUAUUACGGUGC |  | -0.943 ± 0.2 |

| Sequence | self-splicing fitness (ln) (30 °C) | self-splicing fitness (ln) (37 °C) |
| --- | --- | --- |
| UGCGAGCAAUAUUACGGUGG | -3.04 ± 0.23 | -3.1 ± 0.33 |
| UGCGAGCAAUAUUACGUAAA | -2.8 ± 0.1 | -1.77 ± 0.18 |
| UGCGAGCAAUAUUACGUAGG | -3.81 ± 0.18 | -2.76 ± 0.21 |
| UGCGAGCAAUAUUACGUAGU |  | -1.9 ± 0.19 |
| UGCGAGCAAUAUUACGUAUA | -2.89 ± 0.25 | -0.733 ± 0.22 |
| UGCGAGCAAUAUUACGUCUU | -2.61 ± 0.16 | -2.04 ± 0.16 |
| UGCGAGCAAUAUUACGUUUA | -2.19 ± 0.16 | -2.99 ± 0.14 |
| UGCGAGCAAUAUUACGUUUC |  | -2.62 ± 0.36 |
| UGCGAGCAAUAUUACGUUUG | -3.45 ± 0.21 | -2.88 ± 0.21 |
| UGCUAGCAAUAUUACGAAUU | -4.43 ± 0.41 | -1.98 ± 0.17 |
| UGCUAGCAAUAUUACGAUCU | -0.537 ± 0.11 | -0.24 ± 0.1 |
| UGCUAGCAAUAUUACGCGCG | -0.603 ± 0.092 | -1.08 ± 0.12 |
| UGCUAGCAAUAUUACGCGCU | -1.96 ± 0.12 | -0.777 ± 0.13 |
| UGCUAGCAAUAUUACGCGGC | -3.02 ± 0.38 |  |
| UGCUAGCAAUAUUACGGAGU | -4.11 ± 0.3 | -2.34 ± 0.24 |
| UGCUAGCAAUAUUACGGGUC | -2.99 ± 0.16 | -2.62 ± 0.18 |
| UGCUAGCAAUAUUACGGUAG | -1.49 ± 0.098 | -0.852 ± 0.13 |
| UGCUAGCAAUAUUACGUCUG | -0.586 ± 0.088 | -0.323 ± 0.095 |
| UGCUAGCAAUAUUACGUGAG | -3.51 ± 0.18 | -1.78 ± 0.21 |
| UGCUAGCAAUAUUACGUGGC | -3.1 ± 0.32 | -2.6 ± 0.35 |
| UGCUAGCAAUAUUACGUGUU | -3.87 ± 0.16 | -2.21 ± 0.12 |
| UGCUAGCAAUAUUACGUUCG | -0.807 ± 0.065 | -0.115 ± 0.091 |
| UGCUAGCAAUAUUACGUUGU | -2.59 ± 0.17 | -3.8 ± 0.34 |
| UGGAAGCAAUAUUACGAAUU |  | -1.99 ± 0.36 |
| UGGAAGCAAUAUUACGACGG | -0.691 ± 0.065 | -0.14 ± 0.084 |
